Target: T1, Cas1-Cas2 complex (native Cas1 + Cas2-His6) (Escherichia coli, UniProt Q46896;P45956 1-305;1-94)
T1 sequence 1: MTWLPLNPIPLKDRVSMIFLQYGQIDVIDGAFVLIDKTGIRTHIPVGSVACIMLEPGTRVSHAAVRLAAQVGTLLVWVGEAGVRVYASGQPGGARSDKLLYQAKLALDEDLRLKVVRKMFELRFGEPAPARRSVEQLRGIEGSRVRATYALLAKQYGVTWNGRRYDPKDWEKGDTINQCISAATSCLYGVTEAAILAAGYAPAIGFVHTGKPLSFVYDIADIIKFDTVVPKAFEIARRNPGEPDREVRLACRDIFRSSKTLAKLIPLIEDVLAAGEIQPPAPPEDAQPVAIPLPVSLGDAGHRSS
T1 sequence 2: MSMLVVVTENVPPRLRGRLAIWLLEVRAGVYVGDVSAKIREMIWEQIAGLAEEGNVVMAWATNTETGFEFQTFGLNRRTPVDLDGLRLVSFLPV
Test: EMSA

ATTTCAGCTACTCCGATGGCCCATATGCGGATT (ssDNA) [S1 oligonucleotide]: no binding.

ATTTCAGCTACTCCGATGGCCCATATGCGGATC (ssDNA) [S2 oligonucleotide]: no binding.
